# Reference: patent US20250043302A1, “MUTATED HYDROXYPHENYLPYRUVATE DIOXYGENASE POLYPEPTIDE, AND CODING GENE AND USE THEREOF” (BEIJING DABEINONG BIOTECHNOLOGY CO., LTD., priority 2021, published 2025)
# B1: AtHPPD-02: nucleotide sequence encoding wild-type Arabidopsis thaliana HPPD; vector DBN11730 (nucleic acid)
# DNA: ATGGGACATCAGAATGCTGCTGTATCAGAAAATCAAAATCATGATGATGGAGCCGCCTCCTCACCAGGGTTTAAGTTGGTTGGGTTCTCCAAGTTTGTACGGAAGAACCCAAAATCCGACAAGTTCAAGGTTAAACGCTTCCACCACATTGAATTCTGGTGCGGCGACGCCACCAATGTTGCTCGGCGTTTTTCATGGGGTTTAGGCATGAGATTCTCAGCAAAGAGTGACCTGAGCACCGGCAACATGGTTCATGCTAGCTATCTCTTAACATCTGGAGATTTGAGGTTTCTTTTCACGGCGCCGTACTCACCATCACTCTCCGCCGGCGAGATCAAACCCACCACGACTGCAAGCATACCTTCATTTGATCATGGTAGTTGCAGATCCTTCTTCTCGTCGCACGGCCTAGGGGTGCGCGCGGTCGCCATCGAAGTTGAAGATGCAGAATCAGCGTTTAGTATCAGCGTGGCAAATGGAGCTATTCCTTCCTCCCCTCCAATTGTCCTCAATGAGGCTGTAACTATTGCCGAGGTGAAGTTGTATGGAGATGTTGTGCTGAGATATGTTTCTTACAAGGCAGAGGACACTGAGAAATCTGAATTTTTGCCTGGTTTTGAAAGGGTCGAGGATGCTTCAAGTTTTCCTCTTGATTACGGCATACGACGGTTGGATCACGCGGTTGGAAATGTACCAGAACTTGGGCCGGCGCTCACTTATGTGGCTGGTTTCACTGGATTCCATCAATTTGCTGAGTTCACAGCTGATGATGTTGGGACTGCTGAAAGTGGGTTGAACTCTGCAGTCCTCGCCTCTAATGATGAAATGGTGCTCCTCCCGATCAACGAGCCTGTGCATGGCACCAAAAGGAAATCACAAATACAGACATATCTTGAGCACAATGAAGGTGCAGGGCTTCAACATCTTGCACTGATGTCTGAAGACATTTTCCGTACGCTGAGAGAGATGAGGAAGAGAAGTAGTATTGGTGGATTTGACTTCATGCCTTCTCCCCCACCAACTTACTACCAGAACTTGAAGAAGAGGGTTGGTGATGTGCTATCTGATGACCAGATCAAGGAGTGTGAAGAATTGGGCATTCTTGTTGATCGGGACGACCAAGGAACATTACTGCAGATATTTACAAAACCACTTGGTGACCGCCCCACTATTTTTATTGAGATCATACAAAGAGTCGGCTGCATGATGAAGGATGAGGAAGGAAAAGCATATCAATCTGGTGGTTGTGGCGGCTTTGGGAAAGGAAACTTCTCTGAGCTGTTCAAATCCATCGAGGAGTATGAGAAGACCTTGGAGGCCAAGCAGCTCGTGGGTTGA
# modifications: AtHPPD-02 Nucleotide Sequence
# notes: vector DBN11730
# What was measured:
# Format in all cases: in vivo
# [1] = system: Arabidopsis thaliana T1 plants; test: Isoxaflutole tolerance of transgenic Arabidopsis thaliana T1 plants (spray, bleached leaf area grade, damage score); set-up: Scores (pesticide damage): scale not given here; conditions: for Classification and statistics of the grade of pesticide damage: Grade 0 (number of plants) / Classification and statistics of the grade of pesticide damage: Grade 1 (number of plants) / Classification and statistics of the grade of pesticide damage: Grade 2 (number of plants) / Classification and statistics of the grade of pesticide damage: Grade 3 (number of plants): 16 plants; for Classification and statistics of the grade of pesticide damage Grade 0 / Classification and statistics of the grade of pesticide damage Grade 1 / Classification and statistics of the grade of pesticide damage Grade 2 / Classification and statistics of the grade of pesticide damage Grade 3: number of plants in grade
# Method in brief: (§1)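 Damage graded 0–3 from the proportion of bleached leaf area 7 days after spraying. Plants were glufosinate-selected T1 lines, 18 days after sowing, plus vector and wild-type controls. Rates: mesotrione 52.5–420, isoxaflutole 35–280, topramezone 25–200 g ai/ha, with water (0×).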
# [2] = system: Arabidopsis thaliana T1 plants; test: Mesotrione tolerance of transgenic Arabidopsis thaliana T1 plants (spray, bleached leaf area grade, damage score); set-up: Scores: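 damage score 0-100 computed as Σ(N×S)/(T×M)×100 over grades 0-3 with higher meaning more damage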; conditions: for Grade 0 (classification and statistics of the grade of pesticide damage; number of plants) / Grade 1 (classification and statistics of the grade of pesticide damage; number of plants) / Grade 2 (classification and statistics of the grade of pesticide damage; number of plants) / Grade 3 (classification and statistics of the grade of pesticide damage; number of plants): 16 plants; for Classification and statistics of the grade of pesticide damage Grade 0 / Classification and statistics of the grade of pesticide damage Grade 1 / Classification and statistics of the grade of pesticide damage Grade 2 / Classification and statistics of the grade of pesticide damage Grade 3: number of plants in grade
# Method in brief: as §1
# [3] = system: Arabidopsis thaliana T1 plants; test: Topramezone tolerance of transgenic Arabidopsis thaliana T1 plants (spray, bleached leaf area grade, damage score); conditions: for Classification and statistics of the grade of pesticide damage Grade 0: number of plants at grade 0; for Classification and statistics of the grade of pesticide damage Grade 1: number of plants at grade 1; for Classification and statistics of the grade of pesticide damage Grade 2: number of plants at grade 2; for Classification and statistics of the grade of pesticide damage Grade 3: number of plants at grade 3; for Classification and statistics of the grade of pesticide damage: Grade 0 / Classification and statistics of the grade of pesticide damage: Grade 1 / Classification and statistics of the grade of pesticide damage: Grade 2 / Classification and statistics of the grade of pesticide damage: Grade 3: number of plants
# Method in brief: as §1
# [4] = isoxaflutole 35 g ai/ha (0.5x field concentration), spray, Arabidopsis thaliana T1 plants
# [5] = isoxaflutole 70 g ai/ha (1x field concentration), spray, Arabidopsis thaliana T1 plants
# [6] = mesotrione 52.5 g ai/ha, Arabidopsis thaliana T1 plants
# [7] = mesotrione 105 g ai/ha, Arabidopsis thaliana T1 plants
# [8] = Table 13, topramezone 25 g ai/ha (1×)
# [9] = Table 13, topramezone 100 g ai/ha (4×)
# [10] = topramezone 25 g ai/ha (1×), 7 DAT, Table 4
# [11] = topramezone 100 g ai/ha (4×), 7 DAT, Table 4
molecule,measurement,setting,value
B1,Resistance evaluation,[1]; isoxaflutole 35 g ai/ha,Non-resistant
same,Scores,[1]; isoxaflutole 35 g ai/ha,100
same,Resistance evaluation,[1]; [4],Non-resistant
same,Scores (pesticide damage),[1]; [4],100
same,Classification and statistics of the grade of pesticide damage: Grade 0 (number of plants),[1]; [4],0
same,Classification and statistics of the grade of pesticide damage: Grade 1 (number of plants),[1]; [4],0
same,Classification and statistics of the grade of pesticide damage: Grade 2 (number of plants),[1]; [4],0
same,Classification and statistics of the grade of pesticide damage: Grade 3 (number of plants),[1]; [4],16
same,Classification and statistics of the grade of pesticide damage Grade 0,[1]; isoxaflutole 35 g ai/ha,0
same,Classification and statistics of the grade of pesticide damage Grade 1,[1]; isoxaflutole 35 g ai/ha,0
same,Classification and statistics of the grade of pesticide damage Grade 2,[1]; isoxaflutole 35 g ai/ha,0
same,Classification and statistics of the grade of pesticide damage Grade 3,[1]; isoxaflutole 35 g ai/ha,16
same,Resistance evaluation,[1]; isoxaflutole 70 g ai/ha,Non-resistant
same,Scores,[1]; isoxaflutole 70 g ai/ha,100
same,Resistance evaluation,[1]; [5],Non-resistant
same,Scores (pesticide damage),[1]; [5],100
same,Classification and statistics of the grade of pesticide damage: Grade 0 (number of plants),[1]; [5],0
same,Classification and statistics of the grade of pesticide damage: Grade 1 (number of plants),[1]; [5],0
same,Classification and statistics of the grade of pesticide damage: Grade 2 (number of plants),[1]; [5],0
same,Classification and statistics of the grade of pesticide damage: Grade 3 (number of plants),[1]; [5],16
same,Classification and statistics of the grade of pesticide damage Grade 0,[1]; isoxaflutole 70 g ai/ha,0
same,Classification and statistics of the grade of pesticide damage Grade 1,[1]; isoxaflutole 70 g ai/ha,0
same,Classification and statistics of the grade of pesticide damage Grade 2,[1]; isoxaflutole 70 g ai/ha,0
same,Classification and statistics of the grade of pesticide damage Grade 3,[1]; isoxaflutole 70 g ai/ha,16
same,Resistance evaluation,[2]; mesotrione 52.5 g ai/ha,Non-resistant
same,Scores,[2]; mesotrione 52.5 g ai/ha,100
same,Resistance evaluation,[2]; [6],Non-resistant
same,Scores,[2]; [6],100
same,Grade 0 (classification and statistics of the grade of pesticide damage; number of plants),[2]; [6],0
same,Grade 1 (classification and statistics of the grade of pesticide damage; number of plants),[2]; [6],0
same,Grade 2 (classification and statistics of the grade of pesticide damage; number of plants),[2]; [6],0
same,Grade 3 (classification and statistics of the grade of pesticide damage; number of plants),[2]; [6],16
same,Classification and statistics of the grade of pesticide damage Grade 0,[2]; mesotrione 52.5 g ai/ha,0
same,Classification and statistics of the grade of pesticide damage Grade 1,[2]; mesotrione 52.5 g ai/ha,0
same,Classification and statistics of the grade of pesticide damage Grade 2,[2]; mesotrione 52.5 g ai/ha,0
same,Classification and statistics of the grade of pesticide damage Grade 3,[2]; mesotrione 52.5 g ai/ha,16
same,Resistance evaluation,[2]; mesotrione 105 g ai/ha,Non-resistant
same,Scores,[2]; mesotrione 105 g ai/ha,100
same,Resistance evaluation,[2]; [7],Non-resistant
same,Scores,[2]; [7],100
same,Grade 0 (classification and statistics of the grade of pesticide damage; number of plants),[2]; [7],0
same,Grade 1 (classification and statistics of the grade of pesticide damage; number of plants),[2]; [7],0
same,Grade 2 (classification and statistics of the grade of pesticide damage; number of plants),[2]; [7],0
same,Grade 3 (classification and statistics of the grade of pesticide damage; number of plants),[2]; [7],16
same,Classification and statistics of the grade of pesticide damage Grade 0,[2]; mesotrione 105 g ai/ha,0
same,Classification and statistics of the grade of pesticide damage Grade 1,[2]; mesotrione 105 g ai/ha,0
same,Classification and statistics of the grade of pesticide damage Grade 2,[2]; mesotrione 105 g ai/ha,0
same,Classification and statistics of the grade of pesticide damage Grade 3,[2]; mesotrione 105 g ai/ha,16
same,Resistance evaluation,[3]; [8],Non-resistant
same,Classification and statistics of the grade of pesticide damage Grade 0,[3]; [8],0
same,Classification and statistics of the grade of pesticide damage Grade 1,[3]; [8],0
same,Classification and statistics of the grade of pesticide damage Grade 2,[3]; [8],0
same,Classification and statistics of the grade of pesticide damage Grade 3,[3]; [8],16
same,Scores,"[3]; Table 13, topramezone 25 g ai/ha (1×), pesticide damage score",100
same,Resistance evaluation,[3]; [9],Non-resistant
same,Classification and statistics of the grade of pesticide damage Grade 0,[3]; [9],0
same,Classification and statistics of the grade of pesticide damage Grade 1,[3]; [9],0
same,Classification and statistics of the grade of pesticide damage Grade 2,[3]; [9],0
same,Classification and statistics of the grade of pesticide damage Grade 3,[3]; [9],16
same,Scores,"[3]; Table 13, topramezone 100 g ai/ha (4×), pesticide damage score",100
same,Classification and statistics of the grade of pesticide damage: Grade 0,[3]; [10],0
same,Classification and statistics of the grade of pesticide damage: Grade 1,[3]; [10],0
same,Classification and statistics of the grade of pesticide damage: Grade 2,[3]; [10],0
same,Classification and statistics of the grade of pesticide damage: Grade 3,[3]; [10],16
same,Classification and statistics of the grade of pesticide damage: Grade 0,[3]; [11],0
same,Classification and statistics of the grade of pesticide damage: Grade 1,[3]; [11],0
same,Classification and statistics of the grade of pesticide damage: Grade 2,[3]; [11],0
same,Classification and statistics of the grade of pesticide damage: Grade 3,[3]; [11],16
same,Scores,"[3]; pesticide damage score 0-100, topramezone 25 g ai/ha (1×), 7 DAT, Table 4",100
same,Scores,"[3]; pesticide damage score 0-100, topramezone 100 g ai/ha (4×), 7 DAT, Table 4",100
same,Resistance evaluation,[3]; [10],non-resistant (non-resistant plants (scores 68-100))
same,Resistance evaluation,[3]; [11],non-resistant (non-resistant plants (scores 68-100))
